Measured values published in PMC11284795, “Development of Zalfermin, a Long-Acting Proteolytically Stabilized FGF21 Analog” (Journal of Medicinal Chemistry, 2024).

Key:
[1] = target: FGFR3c/KLB: ectodomain of human FGFR3c fused to Fc, with human beta-klotho (human, UniProt P22607 23-375; Q86Z14 53-996); assay: cell-based or functional assay
[2] = target: T1, FGFR1c/KLB: ectodomain of human FGFR1c fused to Fc, with human beta-klotho (human, UniProt P11362 22-376; Q86Z14 53-996); assay: cell-based or functional assay
[3] = target: T2, human beta-klotho (KLB) on HEK293 cells (human, UniProt Q86Z14 1-1044); assay: cell-based or functional assay
[4] = target: T1, FGFR1c/KLB: ectodomain of human FGFR1c …; assay: AlphaScreen or HTRF; competition: biotinylated FGF21 on streptavidin donor beads, ectodomain of human FGFR1c, FGFR2c, FGFR3c or FGFR4 fused to Fc on Protein A acceptor beads, human KLB protein added; signal inhibited by increasing doses of FGF21 analog; 0.1% ovalbumin; indirect measure of binding affinity, reported as IC50; conditions: both partners purified
[5] = target: T3, mouse beta-klotho (KLB) on HEK293 cells (mouse, UniProt Q99N32 1-1043); assay: cell-based or functional assay
T3 sequence (looked up): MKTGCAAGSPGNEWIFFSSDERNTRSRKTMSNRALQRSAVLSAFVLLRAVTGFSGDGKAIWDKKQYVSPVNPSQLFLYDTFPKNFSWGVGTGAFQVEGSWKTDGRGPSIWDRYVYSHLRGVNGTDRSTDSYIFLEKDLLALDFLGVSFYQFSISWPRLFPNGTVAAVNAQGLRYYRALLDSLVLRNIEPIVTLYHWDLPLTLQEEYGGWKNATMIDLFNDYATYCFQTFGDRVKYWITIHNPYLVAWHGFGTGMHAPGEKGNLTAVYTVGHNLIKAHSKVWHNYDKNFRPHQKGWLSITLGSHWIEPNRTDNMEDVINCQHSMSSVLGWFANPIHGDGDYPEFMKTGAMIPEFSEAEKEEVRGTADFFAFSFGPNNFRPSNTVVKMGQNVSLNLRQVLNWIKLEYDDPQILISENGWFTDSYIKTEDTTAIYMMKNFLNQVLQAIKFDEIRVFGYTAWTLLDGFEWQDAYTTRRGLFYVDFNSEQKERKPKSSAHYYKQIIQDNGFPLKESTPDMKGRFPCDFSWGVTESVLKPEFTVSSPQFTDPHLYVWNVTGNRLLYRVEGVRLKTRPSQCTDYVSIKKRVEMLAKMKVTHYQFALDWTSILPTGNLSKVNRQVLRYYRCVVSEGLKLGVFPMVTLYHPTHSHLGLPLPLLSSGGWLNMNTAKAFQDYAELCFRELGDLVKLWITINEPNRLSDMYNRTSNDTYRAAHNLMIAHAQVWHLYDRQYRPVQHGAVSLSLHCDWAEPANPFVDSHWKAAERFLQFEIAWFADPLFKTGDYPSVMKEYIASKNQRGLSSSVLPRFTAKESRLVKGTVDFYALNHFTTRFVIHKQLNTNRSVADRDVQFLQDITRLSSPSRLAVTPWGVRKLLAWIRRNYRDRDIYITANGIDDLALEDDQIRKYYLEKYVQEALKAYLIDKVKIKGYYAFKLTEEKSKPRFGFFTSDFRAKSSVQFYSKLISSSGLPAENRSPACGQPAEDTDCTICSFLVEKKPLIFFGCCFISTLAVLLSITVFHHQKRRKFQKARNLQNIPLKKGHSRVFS

[6] = target: cynomolgus monkey beta-klotho (KLB) on HEK293 cells (cynomolgus monkey); assay: cell-based or functional assay
[7] = target: T2, human beta-klotho (KLB) on HEK293 cells; assay: cell-based or functional assay; remark: listed apart in the source
[8] = target: BSA (albumin of the FAP incubations) (bovine, UniProt P02769 25-607); assay: cell-based or functional assay
[9] = target: human serum albumin (HSA) (human, UniProt P02768 25-609); assay: cell-based or functional assay
[10] = target: the molecule itself; assay: AF4-MALS; 15 at 49-88 mg/mL in 10 mM phosphate, pH 8.2 with 2% glycerol, 1 uL injected; running buffer 10 mM phosphate pH 8.2 with 10 mM NaCl; analysed again after dilution to 5 mg/mL

BSA (albumin of the FAP incubations), sequence (P02769 25-607): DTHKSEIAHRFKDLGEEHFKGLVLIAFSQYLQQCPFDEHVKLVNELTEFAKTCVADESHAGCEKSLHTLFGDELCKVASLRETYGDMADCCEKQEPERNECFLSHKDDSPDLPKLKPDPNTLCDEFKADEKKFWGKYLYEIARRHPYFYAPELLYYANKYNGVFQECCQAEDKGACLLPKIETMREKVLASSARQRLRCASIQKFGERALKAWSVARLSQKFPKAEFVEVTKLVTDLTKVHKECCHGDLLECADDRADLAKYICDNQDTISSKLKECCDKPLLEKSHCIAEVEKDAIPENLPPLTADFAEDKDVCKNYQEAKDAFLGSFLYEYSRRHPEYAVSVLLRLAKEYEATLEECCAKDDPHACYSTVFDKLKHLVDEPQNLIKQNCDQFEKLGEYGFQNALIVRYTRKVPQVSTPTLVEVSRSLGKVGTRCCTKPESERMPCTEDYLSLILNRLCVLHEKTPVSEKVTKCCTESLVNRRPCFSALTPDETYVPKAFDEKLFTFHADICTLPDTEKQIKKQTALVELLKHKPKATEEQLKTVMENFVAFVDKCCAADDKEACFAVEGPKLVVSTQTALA

B1: Met-FGF21 (1) (ligand, human)
chain: MHPIPDSSPLLQFGGQVRQRYLYTDDAQQTEAHLEIREDGTVGGAADQSPESLLQLKALKPGVIQILGVKTSRFLCQRPDGALYGSLHFDPEACSFRELLLEDGYNVYQSEAHGLPLHLPGNKSPHRDPAPRGPARFLPLPGLPPALPEPPGILAPQPPDVGSSDPLSMVGPSQGRSPSYAS
notes: single amino acid N-terminal extension (-1M), giving the N-terminus MHPIP; human FGF21, mature 181-residue hormone (N-terminus HPIP, C-terminus Ser181); numbers count on: the mature protein; also called human FGF21 with N-terminal Met extension; -1M; source: E. coli BL21 (DE3)-derived strain, inclusion bodies, purified (Q Sepharose FF, Phenyl FF, Source 30Q where needed)
[1]
  potency EC50 of ERK phosphorylation in Ba/F3 cells overexpressing human KLB and FGFR3c (chimera with the kinase domain of FGFR1c), 0% HSA: 10.8 nM
[2]
  potency EC50 of ERK phosphorylation in Ba/F3 cells overexpressing human KLB and FGFR1c, 0% HSA: 3.7 nM
[3]
  potency (EC50) of ERK phosphorylation in HEK293 cells transfected with human KLB, without HSA: 1.6 nM
[4]
  pIC50: 6.56 ± 0.89
[5]
  mean EC50 of ERK phosphorylation in HEK293 cells overexpressing mouse KLB: 0.3 nM
[6]
  mean EC50 of ERK phosphorylation in HEK293 cells overexpressing cynomolgus monkey KLB: 1.8 nM
[7]
  mean EC50 of ERK phosphorylation in HEK293 cells overexpressing human KLB (species qualification): 3 nM

B2: zalfermin (NNC0194-0499, 15) (ligand, human)
chain: AHPIPDSSPLLQFGGQVRQRYLYTDDAQQTEAHLEIREDGTVGGAADQSPESLLQLKALKPGVIQILGVKTSRFLCQRPDGALYGSLHFDPEACSFRELLLEDGYNVYQSEAHGLPLHLPGQKSPHRDPAPRGPARFLPLPGLPPALPEPPGILAPQPPDVGSSDPLSLVGPSQGRSPSYCS
modifications: C18 diacid gGlu-OEG-OEG-C2DA-Ac side chain on Cys180
notes: single amino acid N-terminal extension (-1Ala), giving the N-terminus AHPIP; human FGF21, mature 181-residue hormone; numbers count on: the mature protein; 20.3 kDa; also called FGF21 analog 15; source: E. coli BL21 (DE3)-derived strain, inclusion bodies, purified; side chain conjugated to the Cys, purified by anion exchange (MonoQ)
[8]
  t1/2 of 15 toward degradation by FAP in vitro in the presence of 0.1% albumin (27–57 min for 1, 15 and 5 without albumin): 7.47 h
[1]
  potency EC50 of ERK phosphorylation in Ba/F3 cells overexpressing human KLB and FGFR3c (chimera with the kinase domain of FGFR1c), 0% HSA: 11.9 nM
[2]
  potency EC50 of ERK phosphorylation in Ba/F3 cells overexpressing human KLB and FGFR1c, 0% HSA: 4.1 nM
[3]
  potency (EC50) of ERK phosphorylation in HEK293 cells transfected with human KLB, without HSA: 3.3 nM
[9]
  potency (EC50) of ERK phosphorylation in HEK293/human KLB cells with 0.1, 1.0 and 1.5% HSA: 23, 195 and 198 nM (3.3 nM without HSA): 198 nM
[10]
  binding result: binds
[4]
  pIC50: 6.13 ± 0.8
[5]
  mean EC50 of ERK phosphorylation in HEK293 cells overexpressing mouse KLB: 0.1 nM
[6]
  mean EC50 of ERK phosphorylation in HEK293 cells overexpressing cynomolgus monkey KLB: 1.4 nM
[7]
  mean EC50 of ERK phosphorylation in HEK293 cells overexpressing human KLB (species qualification): 2.8 nM

B3: FGF21 analog 17 (-1A, 121Q, 168L, 180C, des181; C18 fatty diacid on 180C) (ligand, human)
chain: AHPIPDSSPLLQFGGQVRQRYLYTDDAQQTEAHLEIREDGTVGGAADQSPESLLQLKALKPGVIQILGVKTSRFLCQRPDGALYGSLHFDPEACSFRELLLEDGYNVYQSEAHGLPLHLPGQKSPHRDPAPRGPARFLPLPGLPPALPEPPGILAPQPPDVGSSDPLSLVGPSQGRSPSYC
modifications: C18 diacid gGlu-OEG-OEG-C2DA-Ac side chain on Cys180
notes: single amino acid N-terminal extension (-1A), giving the N-terminus AHPIP; human FGF21, mature hormone without its last residue Ser181; numbers count on: the mature protein; source: E. coli BL21 (DE3)-derived strain, inclusion bodies, purified; side chain conjugated to the Cys, purified by anion exchange (MonoQ)
[3]
  potency (EC50) of ERK phosphorylation in HEK293 cells transfected with human KLB, without HSA: 3.9 nM
[4]
  pIC50: 5.79 ± 0.05

B4: stabilized backbone (4): -1A, 121Q, 168L FGF21 (ligand, human)
chain: AHPIPDSSPLLQFGGQVRQRYLYTDDAQQTEAHLEIREDGTVGGAADQSPESLLQLKALKPGVIQILGVKTSRFLCQRPDGALYGSLHFDPEACSFRELLLEDGYNVYQSEAHGLPLHLPGQKSPHRDPAPRGPARFLPLPGLPPALPEPPGILAPQPPDVGSSDPLSLVGPSQGRSPSYAS
notes: single amino acid N-terminal extension (-1A), giving the N-terminus AHPIP; human FGF21, mature 181-residue hormone; numbers count on: the mature protein; also called stabilized backbone of 15; source: E. coli BL21 (DE3)-derived strain, inclusion bodies, purified (Q Sepharose FF, Phenyl FF, Source 30Q where needed)
[3]
  potency (EC50) of ERK phosphorylation in HEK293 cells transfected with human KLB, without HSA (with 0.1, 1.0 and 1.5% HSA: 1.4, 0.9 and 1.5 nM, Table 3): 2 nM
[4]
  pIC50: 6.18 ± 0.1

B5: FGF21 analog 18 (-1A, 121Q, 168L, 181C; C18 fatty diacid on 181C) (ligand, human)
chain: AHPIPDSSPLLQFGGQVRQRYLYTDDAQQTEAHLEIREDGTVGGAADQSPESLLQLKALKPGVIQILGVKTSRFLCQRPDGALYGSLHFDPEACSFRELLLEDGYNVYQSEAHGLPLHLPGQKSPHRDPAPRGPARFLPLPGLPPALPEPPGILAPQPPDVGSSDPLSLVGPSQGRSPSYAC
modifications: C18 diacid gGlu-OEG-OEG-C2DA-Ac side chain on Cys181
notes: single amino acid N-terminal extension (-1A), giving the N-terminus AHPIP; human FGF21, mature 181-residue hormone; numbers count on: the mature protein; source: E. coli BL21 (DE3)-derived strain, inclusion bodies, purified; side chain conjugated to the Cys, purified by anion exchange (MonoQ)
[3]
  potency (EC50) of ERK phosphorylation in HEK293 cells transfected with human KLB, without HSA: 39 nM
[4]
  pIC50: 5.72 ± 0.02
